Here are results for 41 sequences from the nanobody polyreactivity screen of Harvey et al. (2022).

A short description of this series: yeast display, Sf9 membrane polyspecificity reagent, FACS + sequencing; frameworks hold sequencing errors. The method in brief:
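Genes from sorted yeast were amplified by colony PCR, read by MiSeq 2 × 250 sequencing and filtered on CDR length. These cells carried a synthetic nanobody library in Saccharomyces cerevisiae BJ5465 and were sorted by FACS into low and high (top ~1%) gates on anti-HA and streptavidin fluorescence. Polyreactivity is labelled according to the gate of origin.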
Take “QVQLEESGGGLVQAGGSLRLSCAASGSIFTVNAMGWYRQAPGKERELVAAISSGGSTHYADSVKGRFTISRDNAKNTVYLQMNSLKPEDTAVYFCNAAGAYPDRDNYWGQGTQVTVSS”: the “polyreactivity (PSR sort gate)” value is reported as “low polyreactivity”.
As for “QVQLVESGGGLVQAGGSLRLSCAASGSTFYLNAMGWYRQAPWKERELVASITWRGGSTYYADSVKGRFTISRDNAKNTVYLQMNSLKPEDTGVYYCAADATRLRTRYKRDYWGQGSQVTVSS”, the entry is “high polyreactivity”; as for “QVQHVESGGGLVQAGGSLRLSCDAYGSTFYYYAMGWYRQAPGKERELVASISRGGSTNYAYSVKGRFTISRDNAKNTVYLQMNSLKAEDTAVYYCNADRYLRPKSWWTVYYERDYWGQGTQVTVSS”, “low polyreactivity”.
Turning to “QVQLVESGGRLVQAGGSLRLSCAASGRTFKKYAMGWYRQAPGKERELVAAITGSGGSTYYADSVKGRFTISRDNAKNTVYLQMNSLKPEDTAVYYCAAYAYGVWHSQDGGNFWGQGTQVTVSS”, the “polyreactivity (PSR sort gate)” value is “low polyreactivity”.
Next, “QVQLVESGGRLVQAGGSLRLSCAASGLTFVYNTMGWYSQAPGKERKLVAAISSSGGTTYYADSVKGRFTISRDNAKNTVYLQMNSLKPEDTAVYYCAARPSGGYESTRTRDYWGQGTQVTVSS”: “low polyreactivity”.
With “QVQLEESGGGLVQAGGRLRLSCAASGNTFQVYAMGWSRQASGTERELVATITSGGSTNYADSVKGRFTISRDNAKNTVYLQMNSQIPDDTAVYYCARRAVYSKRRYDYWGQGTQVTVSS”, the “polyreactivity (PSR sort gate)” value was “low polyreactivity”.
As for “QVQLVESGGGLVQAGGSLRLSCAASGSTFHRYALGWYRQAPGKERELVATITSRGGITYYADSVKGRFTISRDNAKNTVYLQMNSLKPEDTAVYYCYRYDYWGQGTQVTVSS”, the entry is “low polyreactivity”; as for “QVQHVESVGGLVQAGGSLRLSCAASGGIFWVYAMGWYRQAPGKERELVAAISNSDTSTSYADSVKGRFTISRDNAKNTVYLQMNSLKPEDTAVYYCNADSPSLSGDYWGQGTQVTVSS”, “low polyreactivity”.
As to “QVQLQESGGGLVQAGGSLRMSCAASGSIFYVYGMGWYRQAPGKERELVAGINAGTNTNYADSVRGRFTISRDNAKNTVHLQMKSLKPEDTAVYYCAADGNGYQADEYWGQGTQVTVSS”, the “polyreactivity (PSR sort gate)” value was “high polyreactivity”.
As for “QVQLVESGGRLVQAGGSLRLSCAASGSIFYYYAMGWYRQAPGKERELVAAINGGDTYYADSVKGRFTISRDNAKNTVYLQMNSLKPEDTAVYYCAAEGVTVEWDYDYLGQGTQVTVSS”, the “polyreactivity (PSR sort gate)” value is listed as “low polyreactivity”.
Take “QVQLVESGGGLVQAGGSLRLSCGASGNIFTRNAMGWSRQAPGKERECVAAITESGASTYYADSVKGRFTISRDNAKNTVYLQMNSLKPEDTAVYYCNARLSRWRRRPYDYWGQGTQVTVSS”: the “polyreactivity (PSR sort gate)” value is “high polyreactivity”.
“QVQLVESGGGLVQAGGSLRLSCAASGFTFYYYTMGWYRQAPGKERELVAVITGGGGSTYYADSVKGRFTISRDNAKNTVYLQMNSLKPEDTAVYYCAAKFYGWYRQRGYDYWGQGTQVTVSS”: the “polyreactivity (PSR sort gate)” value was “high polyreactivity”.
For “QVQLVESGGGLVQAGGSLRLSCAASGSIFEGNAMGWSRQAPGKERELVAAITGRGGSTYYADSVKGRFTISRDNAKNTVYLQMNSLKPEDTAVYYCAARVRRLSSIIYYYWGQGTQVTVSS”, the “polyreactivity (PSR sort gate)” value is recorded as “high polyreactivity”.
Next, “QVQLVESGGGLVQAGGSLRLSCAASGIIFTRNAMGWYRQATGKERELVAAITYGGSTYYADSVKGRFTISRDNAKNTVYLQMNSLKPEDTAVYYCAVDAYRYRVHSYGKKYGYNYWGQGTQVTVSS”: “high polyreactivity”.
Regarding “QDQLVESGGGLVQAGGSLRLSCAASGRTFGYNAMGWYRQAPGKERELVAANNWSGASTYYADSVKGRFTISRDNAKNTVYLQMNSLKPDDSAVYYCAADYSYIYGFDYWGQGTQVTVSS”, the “polyreactivity (PSR sort gate)” value was “low polyreactivity”.
Next, “QVQLVESGGGLVQAGGSLRLSCAASGRIFYPYAMGWYRQAPGKERELVAAISSSGGSTYYADSVKGRFTISRDNAKNTVYLQMNSLKPEDTAVYYCNKYSYTYQNPYDSWGQGTQVTVSS”: “high polyreactivity”.
As for “QVQLVESGGGLVQAGGSLRLSCAASGSTFENYVMGWDRQAPGKERELVAAISRGGGSTHYADSVKGRFTISRDNANNTVYLQMNSLKPEDTAVYYCAARYQPYVGSRSISTGIYYYWGQGTQVTVSS”, the entry is “low polyreactivity”.
Next, “QVQLAESGGGLVQAGGSLRLSCAASGIIFVYNAMGWYIKAPGKERELVAVISFIGDSTYYADSVKGRFTISRDNAKNTVYLQMNSLKPEDTAVYYCAADYYMPYWFFVGYDYWGQGTQVTVSS”: “low polyreactivity”.
With “QVQLVESGGGLVQAGGSLRLSCAASGRTFYYYAMGWYRQAPGKEREFVAAISWSGVRTSYADSVKGRFTISRDNAKNTVNLQMNSLKPEDTAVYYCATKPNPQSRPRYDHWGQGTQVTVSS”, the “polyreactivity (PSR sort gate)” value is recorded as “high polyreactivity”.
As for “QVQLVESGGGLVQAGGSLRLSCAASGFIFASYAMGWYRQAPGKERELVAAITQSGGITYYADSVKGRFTISRDNAKNTVYLQMTSLKPEDTAVYYCNTPLLKRTTRGRERNYWGQGTQVTVSS”, the entry is “low polyreactivity”; as for “QVQLVESGAGLVQAGGSLRLSCAPSGITFVGNAMGWSRPAPGKERELVAGIRGNGGSTYYADSVKGRFTISRDNAKNTVYFQMNSLKPEDTAVYYSAAAAYYADFDYWGLGTQVTVSS”, “low polyreactivity”; as for “QVQLVESGGGLVQAGGSLRLSCAASGRILHGYAMGWYRQAPGKERELVAAITSSGGRTYYADSVKGRFTISRDNAKNTVYLQMNSLKPEDTAVYYCAADRPAYRTGDSKYDYWGQGTQVTVSS”, “low polyreactivity”.
Turning to “QVQHVESGGGLDQAGGSLRLSCAASGITFEGYAMGWYRQAPGKERELVAAIRSSGTSTYYADSVKGRFTISRDNAKNTFYLQMISLKPEETAVYYCNRARSSYSYDYWGQGTQVTVSS”, the “polyreactivity (PSR sort gate)” value was “low polyreactivity”.
With “QVQLVESGGGLVQAGGSLRLSCAASGIIFASNGMGWSRQPPGKERELVAAISSGGSTNYADSVKGRFTISRDNAKNTVYLQMNSLKPEDTAVYYCAAVRWYREYDYWGQGTQVTVSS”, the “polyreactivity (PSR sort gate)” value was “low polyreactivity”.
Next, “QVQLVESGGGLVQAGGSLRLSCAASGITFSEYAMGWYRQAPGKERELVAAITSGGNTYYADSVKGRFTISRDNAKNTVYLQMNSLKPEDTAVYYCAATFSSAFAYYYWGQGTQVTVSS”: “low polyreactivity”; “QVQLVESGGGLVQAGGSLRLSCAASGSTFYQYVMGWYRQAPGKERELVAAISGSGGSTYYADSVKGRFTISRDNAKTTVYLQMNSLKPEDTAVYYCAAVGRSKRDGYWGQGTQVTVSS”: “high polyreactivity”.
Next, “QVQLVESGGGLVQAGGSLRLSCAASGRTFVRYAMGWYRQAPGKERELVAAISWSGGSTYYADSVKGRFTISRDNAKNTVYLQMNSLKPADTAVYYCAAYYRGRNFDYCGQGTQVTVSS”: “high polyreactivity”; “QVQLVESGGGLVQAGGSLRLSCADSGRTFWSNAMGWYRQAPGKERELVARIDSTYYADSVKGRFTISRDNAKNTVYLQMNSLKPEDTAVYYCNADTIYYAGDFRYDYWGQGTQVTVSS”: “low polyreactivity”.
Next, “QVQLVESGGGLVQAGGSLRLSCAASGFIFPGYAMGWYRQAPGKERELVAAISRSGGITYYADSVKGRFTISRDNAKNTVYLQMNSLKPEDTAVYYCAARDRVRDDYWGQGTQVTVSS”: “high polyreactivity”; “QVQLVESGGGLVQAGGSLRLSSAASGRNFGPYTMRWSRQAPGKERELVATISYSGSTTYYADSVKGRFTISRDNAKNTVYLQMNSLKPEDTAVYYCNAQYYVFITFDYWGQGTQVTVSS”: “high polyreactivity”.
Regarding “QVQLVESGGGLVQAGGSLRLSCAASGSIFDSNAMGWYRQAPGKERELVAAIDDSGATTYYADSVKGRFTISPDNAKNTVYLQLNSLKPEDTAVYYCAAETYTGSLAYYREYYYWGQGTQVTVSS”, the “polyreactivity (PSR sort gate)” value was “low polyreactivity”.
For the sequence “QVQLVESVGGLVQAGGSLRLSCAASGSTIGWNAMGWYRQAPGKERELVAAISSSGGSTNYADSVKGRFTISRDNAKNTVYLQMNCLKPEDTAVYYCAKGRRPGYGYGYWGHGTQVTVSS”, the “polyreactivity (PSR sort gate)” value is “low polyreactivity”.
As for “QVQLVESGGGLVQAGGSLRLSCAASGIIFDEYAMGWYRQAPGKERELVAVIDWSGGSTYYADSVKGRFTISRDNAKKTVYLQMNSLKPEVTAVYYCAAEDDSSTPEFDYWGQGTQVTVSS”, the entry is “low polyreactivity”.
For “QVQLVESGGGLVQAGGSLRLSCAASGFTFYLNAMGWYRQAPGKERELVAAISYSDGSPYYADSVKGRFTISRDNAKNTVYLQRNSLKPEDTAVYYCAADTTDPGGAYQLMDYWRQGTQVTVSS”, the “polyreactivity (PSR sort gate)” value is “low polyreactivity”.
Turning to “QVQRVESVGGLVQAGGSLRFSCAASGSTFTANAMGWYRQAPGKEREFVAAITQSGGDTYYADSVKGRFTISRDNAKNTVYLQMNSLKPEDSEVYYCAAESAYFVALTHFYTVEFYYWGQGTQGTVSS”, the “polyreactivity (PSR sort gate)” value is listed as “low polyreactivity”.
For “QVQLVESGGGLVQAGGSLRLSCAASGSIFSWYAMGWYRQAPGKERELVAAISWSSGSTYYADSVKGRFTISRDNAKNTVYLQMNSLKPEDTAVYYCAADATYLGWYELYYWGQGTQVTVSS”, the “polyreactivity (PSR sort gate)” value is recorded as “high polyreactivity”.
Next, “QVHLVESGGGLVQAGGSLRLSCAASGGTFWWYTMGWYRQAPGKERELVATITRGGSTNYADSVKGRFTISRDNAKNTVYLQMNSLKPEDTAVYYCSARWYVYVHFERYYWGQGTQVTVSS”: “high polyreactivity”; “QVQLVESGGGLVQAGGSLRLSCAASGITIRLYAKGWYRQAPGKERELVAGISSGGSTYYADSVKGRFTISRDNAKNTFYLQMNSLKPEDTAVYYCAAVSYGRRRPQHFEYWGQGTQVTVSS”: “high polyreactivity”; “QVQLVESGGGLVQAGGSLRLSCAASGRIISAYAMGWYRQAPGKERELVAAITGSGGSTYYADTVKGRFTISRDNAKKTVYLQMNSRKPEDTAVYYCAAKIDYPDARYFPYRYYYWGQGTQVTVSS”: “high polyreactivity”.
Next, “QVQLVESGGGLVQAGGSLRLSCAASGFIFGKFAMGWYRPAPGKERELVAAITSDGRTYYADSVKGRFTISRDNAKNTVYLQMNSLKPEDTAVYYCAVDYYWYWYSGYDDYWGQGTQVTVSS”: “high polyreactivity”; “QVQLVESGGGLVQAGGSLRLSCAASGSIFYVNTIGWYRQAPGKERELVAGITSRGGSTYYADSVKGRFTISRDNAKNTVYLQMNSLKPEDTAVYYCAKRAYGTALYRGYGYWGQGTQVTVSS”: “low polyreactivity”.
